Experiments:
[1] = molecular target: 28mer peptide of the CXCR5 antigen; test: ELISA potency (binding); 100 mg/mL, Trehalose (60) + Mannitol (15), T zero
[2] = molecular target: 28mer peptide of the CXCR5 antigen; test: Antigen-ELISA; acetate 10 mM prototype B, repeated values in the 3 weeks -20°C
[3] = molecular target: 28mer peptide of the CXCR5 antigen; test: Antigen-ELISA; Histidine 10 mM pH 5.5, after 1 week at +40°C
[4] = molecular target: 28mer peptide of the CXCR5 antigen; test: Potency (Antigen ELISA); stored +5°C, 6 months
[5] = molecular target: 28mer peptide of the CXCR5 antigen; test: Antigen-ELISA; PB 5 mM pH 7.50, after 1 week at +40°C
[6] = molecular target: 28mer peptide of the CXCR5 antigen; test: Potency (Antigen ELISA); stored -20°C, 1 month
[7] = molecular target: 28mer peptide of the CXCR5 antigen; test: Antigen-ELISA; standard run with LA_09_004_8
[8] = molecular target: 28mer peptide of the CXCR5 antigen; test: Antigen-ELISA; Histidine 10 mM pH 6.5, T0
[9] = molecular target: 28mer peptide of the CXCR5 antigen; test: Potency (Antigen ELISA); stored +25°C, 1 month
[10] = molecular target: 28mer peptide of the CXCR5 antigen; test: Antigen-ELISA; standard run with LA_09_27A, T0
[11] = molecular target: 28mer peptide of the CXCR5 antigen; test: ELISA potency (binding); 100 mg/mL, Arginine (20) + NaCl (2), T zero
[12] = molecular target: 28mer peptide of the CXCR5 antigen; test: Antigen-ELISA; acetate 10 mM prototype D, T0
[13] = molecular target: 28mer peptide of the CXCR5 antigen; test: Antigen-ELISA; Histidine 10 mM pH 6, T0
[14] = molecular target: 28mer peptide of the CXCR5 antigen; test: ELISA potency (binding); 100 mg/mL, Sucrose (60) + Mannitol (15), T zero
[15] = molecular target: 28mer peptide of the CXCR5 antigen; test: Antigen-ELISA; Histidine 10 mM pH 6, after 1 week at +40°C
[16] = molecular target: 28mer peptide of the CXCR5 antigen; test: Antigen-ELISA; standard run with LA_09_29A, T0
[17] = molecular target: 28mer peptide of the CXCR5 antigen; test: Antigen-ELISA; Acetate 10 mM pH 5.50, T0
[18] = molecular target: 28mer peptide of the CXCR5 antigen; test: ELISA potency (binding); 100 mg/mL, Trehalose (60) + Mannitol (15), 7 days at 40°C
[19] = molecular target: 28mer peptide of the CXCR5 antigen; test: Antigen-ELISA; standard run with LA_09_28B, T0
[20] = molecular target: 28mer peptide of the CXCR5 antigen; test: Antigen-ELISA; standard run with LA_09_28D, T0
[21] = molecular target: 28mer peptide of the CXCR5 antigen; test: Antigen-ELISA; Citrate 10 mM pH 6.50, after mechanical stress 350 rpm 2.5 h
[22] = molecular target: 28mer peptide of the CXCR5 antigen; test: Antigen-ELISA; Histidine 10 mM pH 6.5, after 1 week at +40°C
[23] = molecular target: 28mer peptide of the CXCR5 antigen; test: Potency (Antigen ELISA); stored +5°C, 12 months
[24] = molecular target: 28mer peptide of the CXCR5 antigen; test: Antigen-ELISA; TRIS 10 mM pH 8.5, T0
[25] = molecular target: 28mer peptide of the CXCR5 antigen; test: Antigen-ELISA; standard run with LA_09_004_5
[26] = molecular target: 28mer peptide of the CXCR5 antigen; test: Antigen-ELISA; PBS 155 mM, amber glass type II, 24 h +40°C
[27] = molecular target: 28mer peptide of the CXCR5 antigen; test: Antigen-ELISA; PBS 155 mM pH 7.50, after 1 week at +40°C
[28] = molecular target: 28mer peptide of the CXCR5 antigen; test: Antigen-ELISA; TRIS 10 mM pH 8.5, after 1 week at +40°C
[29] = molecular target: 28mer peptide of the CXCR5 antigen; test: Antigen-ELISA; TRIS 10 mM pH 7.5, T0
[30] = molecular target: 28mer peptide of the CXCR5 antigen; test: ELISA potency (binding); 100 mg/mL, Arginine (20) + Mannitol (15), T zero
[31] = molecular target: 28mer peptide of the CXCR5 antigen; test: Antigen-ELISA; Citrate 10 mM pH 6.00, T0
[32] = molecular target: 28mer peptide of the CXCR5 antigen; test: ELISA potency (binding); 100 mg/mL, Sucrose (60) + NaCl (2), T zero
[33] = molecular target: 28mer peptide of the CXCR5 antigen; test: Potency (Antigen ELISA); stored -20°C, 6 months
[34] = molecular target: 28mer peptide of the CXCR5 antigen; test: Antigen-ELISA; PB 10 mM pH 7.00, T0
[35] = molecular target: 28mer peptide of the CXCR5 antigen; test: Potency (Antigen ELISA); stored +25°C, 3 months
[36] = molecular target: 28mer peptide of the CXCR5 antigen; test: Antigen-ELISA; PBS 155 mM pH 6.50, after mechanical stress 350 rpm 2.5 h
[37] = molecular target: 28mer peptide of the CXCR5 antigen; test: Potency (Antigen ELISA); stored -20°C, 18 months
[38] = molecular target: 28mer peptide of the CXCR5 antigen; test: Antigen-ELISA; PB 5 mM pH 6.50, after 1 week at +40°C
[39] = molecular target: 28mer peptide of the CXCR5 antigen; test: ELISA potency (binding); 100 mg/mL, Lysine (30) + Mannitol (15), T zero
[40] = molecular target: 28mer peptide of the CXCR5 antigen; test: Antigen-ELISA; Citrate 10 mM pH 6.50, T0
[41] = molecular target: 28mer peptide of the CXCR5 antigen; test: Antigen-ELISA; standard run with LA_09_004_6
[42] = molecular target: 28mer peptide of the CXCR5 antigen; test: Antigen-ELISA; PBS 155 mM pH 7.00, T0
[43] = molecular target: 28mer peptide of the CXCR5 antigen; test: Antigen-ELISA; Arginine 10 mM pH 8, T0
[44] = molecular target: 28mer peptide of the CXCR5 antigen; test: Antigen-ELISA; PB 10 mM pH 7.00, after mechanical stress 350 rpm 2.5 h

rel. potency [%] [1]: 156%
EC50 % [2]: 112%
EC50 % [3]: 81%
EC50 value (in comparison to reference) [4]: 97%
EC50 % [5]: 141%
EC50 value (in comparison to reference) [6]: 107%
EC50 % [7]: 100%
EC50 % [8]: 110%
EC50 value (in comparison to reference) [9]: 121%
EC50 % [10]: 100%
rel. potency [%] [11]: 144%
EC50 % [12]: 91%
EC50 % [13]: 184%
rel. potency [%] [14]: 205%
EC50 % [15]: 77%
EC50 % [16]: 100%
EC50 % [17]: 180%
rel. potency [%] [18]: 266%
EC50 % [19]: 100%
EC50 % [20]: 100%
EC50 % [21]: 41%
EC50 % [22]: 175%
EC50 value (in comparison to reference) [23]: 93%
EC50 % [24]: 118%
EC50 % [25]: 100%
EC50 % [26]: 90.1%
EC50 % [27]: 52%
EC50 % [28]: 237%
EC50 % [29]: 104%
rel. potency [%] [30]: 117%
EC50 % [31]: 52%
rel. potency [%] [32]: 165%
EC50 value (in comparison to reference) [33]: 96%
EC50 % [34]: 145%
EC50 value (in comparison to reference) [35]: 96%
EC50 % [36]: 79.3%
EC50 value (in comparison to reference) [37]: 127%
EC50 % [38]: 77%
rel. potency [%] [39]: 88%
EC50 % [40]: 59%
EC50 % [41]: 100%
EC50 % [42]: 74%
EC50 % [43]: 121%
EC50 % [44]: 61.4%
B1: Lead CXCR5 Antibody (humanized IgG4 anti-CXCR5 antibody) (antibody, V domains shown)
VH: QVQLKESGPGLVAPSESLSITCTVSGFSLIDYGVNWIRQPPGKGLEWLGVIWGDGTTYYNPSLKSRLSISKDNSKSQVFLKVTSLTTDDTAMYYCARIVYWGQGTLVTVSA
VL: DIVMTQAAPSVAVTPGASVSISCRSSKSLLHSSGKTYLYWFLQRPGQSPQLLIYRLSSLASGVPDRFSGSGSGTAFTLRISRVEAEDVGVYYCMQHLEYPYTFGGGTKLEIKR

Reference: patent US20140004106A1
